Assay results reported in patent publication US20130039923A1 (Novo Nordisk, published 2013).
Where a chain is given by its changes, count along the chain named. Each block holds one binder with its values, some of them ahead of it. Ends that are not written are not given here.

Columns and labels:
[1] = molecular target: T1, Peptide no. 7 (Figures 7A, 7B) (also: N-terminus acylated); experiment: array of terminally truncated, acylated hIL20 peptides on cellulose; fluorescein-labelled antibody; fluorescence as OD
T1 construct: peptide array on cellulose
T1 peptide: YQTPDHYTLRKISSLAN
Experimental: (§1) The screenings were done using fluorescence labelled antibodies. The labelling was done by gel-filtering the antibody stock against 1% NaHCO3, using NAP5 column (GE Healthcare according the manual from manufacturer. This was followed by adding 25 mole equivalents of 5(6)-carboxyfluorescein N-hydroxysuccinimide ester (Sigma, C1609) dissolved in DMSO. The coupling was allowed to continue for 2 hours followed by a gelfiltration against TRIS washing buffer (50 mM TRIS, pH=7.4, 0.15M NaCl, 0.1 M ArgHCl, 0.05% Tween 20) in order to removed uncoupled fluorescein.
(§2) Screening of arrays were done by adding 10 μl of antibody to 30 ml incubation buffer (0.5% BSA, 50 mM TRIS, pH=7.4, 0.15M NaCl, 0.1 M ArgHCl, 0.05% Tween 20). The sheets were incubated for 1-2 hours, followed by washing five times with washing buffer. […] The fluorescence intensity were measured and transformed into digits that were exported to Prism 5 (Graph Pad Software, USA) for further analysis.

[2] = molecular target: T2, Peptide no. 2 (Figures 7A, 7B) (N-terminus acylated); experiment: as above
T2 construct: peptide array on cellulose
T2 peptide: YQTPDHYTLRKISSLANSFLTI
Experimental: as §1, §2

[3] = molecular target: T3, Peptide no. 5 (Figures 7A, 7B) (also: N-terminus acylated); experiment: as above
T3 construct: peptide array on cellulose
T3 peptide: YQTPDHYTLRKISSLANSF
Experimental: as §1, §2

[4] = molecular target: T4, Peptide no. 6 (Figures 7A, 7B) (also: N-terminus acylated); experiment: as above
T4 construct: peptide array on cellulose
T4 peptide: YQTPDHYTLRKISSLANS
Experimental: as §1, §2

[5] = molecular target: T5, Peptide no. 17 (Figures 7A, 7B) (also: N-terminus acylated); experiment: as above
T5 construct: peptide array on cellulose
T5 peptide: HYTLRKISSLANSFLTIK
Experimental: as §1, §2

[6] = molecular target: T6, Peptide no. 16 (Figures 7A, 7B) (also: N-terminus acylated); experiment: as above
T6 construct: peptide array on cellulose
T6 peptide: DHYTLRKISSLANSFLTIK
Experimental: as §1, §2

[7] = molecular target: T7, Peptide no. 15 (Figures 7A, 7B) (N-terminus acylated); experiment: as above
T7 construct: peptide array on cellulose
T7 peptide: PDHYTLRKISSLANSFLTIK
Experimental: as §1, §2

[8] = molecular target: T8, Peptide no. 1 (Figures 7A, 7B) (N-terminus acylated); experiment: as above
T8 construct: peptide array on cellulose
T8 peptide: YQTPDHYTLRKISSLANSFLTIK
Experimental: as §1, §2

[9] = molecular target: T9, Peptide no. 13 (Figures 7A, 7B) (N-terminus acylated); experiment: as above
T9 construct: peptide array on cellulose
T9 peptide: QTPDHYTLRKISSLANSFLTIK
Experimental: as §1, §2

[10] = molecular target: T10, Peptide no. 14 (Figures 7A, 7B) (N-terminus acylated); experiment: as above
T10 construct: peptide array on cellulose
T10 peptide: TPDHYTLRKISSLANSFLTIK
Experimental: as §1, §2

[11] = molecular target: T11, Peptide no. 3 (Figures 7A, 7B) (N-terminus acylated); experiment: as above
T11 construct: peptide array on cellulose
T11 peptide: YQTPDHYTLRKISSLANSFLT
Experimental: as §1, §2

[12] = molecular target: T12, Peptide no. 4 (Figures 7A, 7B) (N-terminus acylated); experiment: as above
T12 construct: peptide array on cellulose
T12 peptide: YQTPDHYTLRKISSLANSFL
Experimental: as §1, §2

[13] = molecular target: T13, recombinant human interleukin-20 (human, UniProt Q9NYY1 25-176); experiment: SPR (Biacore 3000/T100), antibody amine-coupled on CM5, recombinant hIL20 injected 3.125-100 nM, 1:1 Langmuir, 25 C; antibody from HEK293
T13 construct: also called hIL20; IL20
T13 sequence: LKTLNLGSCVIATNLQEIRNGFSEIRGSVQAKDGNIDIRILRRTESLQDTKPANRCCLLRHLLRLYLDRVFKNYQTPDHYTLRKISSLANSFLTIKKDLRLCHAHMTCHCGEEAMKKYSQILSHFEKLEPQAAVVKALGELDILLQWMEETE
Experimental: Affinity studies were performed using a direct binding procedure, with the monoclonal antibody covalently coupled via free amine groups to the carboxymethylated dextrane membrane (CM5) on the sensor chip surface. […] The kinetic parameters for the interaction could be calculated using a 1:1 interaction Langmuir fitting model.
The purified monoclonal antibodies were immobilized in individual flow cells on a CM5 type sensor chip. Immobilizations were performed using a standard amine coupling procedure, aiming for an immobilization level of 1000 Resonance Units (RU). The antibodies were diluted to 5 μg/ml in 10 mM NaAc pH 5.0. […] Association (injection) was 3 min., followed by a 30 min. dissociation (wash) period. Flow rate was 30 μl/min. Experiments were performed at 25° C. Regeneration of the surface following each cycle, was accomplished by injection of 30 sec. pulse of 10 mM Glycin-HCl pH 1.8, at a 30 ul/min flow rate. Detection in all flow cells simultaneously. Flow cell No. 1 contained no immobilized antibody, and was used for subtraction of background and bulk. […] Data was inspected for mass-transport limitations prior to calculation of the kinetic parameters. Experiments were performed on Biacore 3000 and T100 instruments. Data was evaluated using Biaeval 4.1 and Biacore T100 evaluation software.

[14] = molecular target: T14, Peptide no. 86 (Figure 6A); experiment: 18mer hIL20 peptide array on cellulose, 4 residue walk; fluorescein-labelled antibody; fluorescence as OD
T14 construct: also called Peptide no
T14 peptide: NYQTPDHYTLRKISSLAN
Experimental: as §1, §2

[15] = molecular target: T15, Peptide no. 87 (Figure 6A); experiment: as above
T15 construct: also called Peptide no
T15 peptide: PDHYTLRKISSLANSFLT
Experimental: as §1, §2

binding result [1]: binds | binding result [2]: binds | binding result [3]: binds | binding result [4]: binds | binding result [5]: binds | binding result [6]: binds | binding result [7]: binds | binding result [8]: binds | binding result [9]: binds | binding result [10]: binds | binding result [11]: binds | binding result [12]: binds | Kd [13]: 0.032 nM | koff [13]: 6.3e-05 s⁻¹ | kon [13]: 1.9e+06 M⁻¹ s⁻¹
B1: human anti-hIL20 monoclonal antibody 15D2 (antibody, V domains shown)
VH: QVQLVQSGAEVKRPGASVKVSCKASGYTFTNDIIHWVRQAPGQRLEWMGWINAGYGNTQYSQNFQDRVSITRDTSASTAYMELISLRSEDTAVYYCAREPLWFGESSPHDYYGMDVWGQGTTVTVSS
VL: AIQLTQSPSSLSASVGDRVTITCRASQGISSALAWYQQKPGKAPKLLIYDASSLESGVPSRFSGSGSGTDFTLTISSLQPEDFATYYCQQFNSYPLTFGGGTKVEIKR
notes: also called 15D2-wt; 15D2 wild-type

binding result [14]: binds | binding result [15]: binds
B2: human anti-hIL20 monoclonal antibody 5B7 (antibody, human IgG4, V domains shown)
VH: B1 VH with T30S, N31S, D32H, I34M, Q59K, S69T, S106L
VL: B1 VL
notes: described as human IgG4; also called 5B7-wt
